Common to all, as to type: in vivo, mouse
Assay [1] relates to SJL/J mice. In words: Adoptive transfer R-EAE, clinical score. The protocol:
Female SJL/J mice were primed with 50 μg of PLP139-151/CFA according to the standard laboratory protocol on day 0. On day 8 post disease induction, the inguinal lymph nodes were collected and the total lymph node cells were re-activated in culture in the presence of PLP139-151 for 3 days. At the end of culture, cells were collected and transferred into naive recipient SJL/J mice.
a. Mice were shaved (about a 1 in.×1 in, square on the back between the hind flanks) and injected with CFA/PLP139-151 emulsion at 100 μl per mouse s.c., divided between three spots on the back and flanks. Peptide and final dose given per mouse: 50 μg of PLP139-151 peptide on day 0.
b. On day 8 post priming with PLP139-151/CFA, the draining inguinal lymph nodes were collected, and single cell suspensions were prepared. Total lymph node cells were cultured at a density of 8×10^6 cells per ml in the HL-1 medium plus PLP139-151 peptide (20 μg/ml) in T75 flasks.
c. After 3 days of culture, the PLP139-151 reactivated cells were collected and counted using an hemacytometer. The number of total viable cells and the number of blast cells was determined. […]
f. Mice were scored on the indicated days, on a 0-5 disease score scale per standard laboratory protocol: 0, no abnormality; 1, limp tail; 2, limp tail and hind limb weakness; 3, hind limb paralysis; 4, hind limb paralysis and forelimb weakness; and 5, moribund. […]

Assay [2] concerns male DBA/1OlaHsd mice. In words: CIA, early stage treatment from day 18. The conditions noted are these: 3.3 mg/kg. An excerpt:
The aim of this study was to estimate the effect of C1ORF32-P8-V1-ECD-mFc (SEQ ID NO:42) on disease development in a type II Collagen induced arthritis (CIA) mouse model upon administration at early stage of disease; i.e., when specific and predictive markers for RA development are present in the serum, but before onset of clinical symptoms.
In the CIA model, arthritis is induced by immunization with type II collagen in CFA on day 1 which is followed by boosting with type II collagen in CFA on day 21. Antibodies against both CII and cyclic citrullinated peptide (CCPs) appear early after immunization, before joint swelling is observed.
To evaluate the effect of early stage treatment with C1ORF32-P8-V1-ECD-mFc (SEQ ID NO:42) on disease development treatment started on day 18 and was given IP injection, Q2D to mice from day 18 until day 32.
Male DBA/101aHsd mice weighing 16-25 grams (mean 22 g) on day 18 of the study were obtained from Harlan, Inc., Indianapolis, Ind. Mice (10/group) were anaesthetized with Isoflurane, shaved at the base of the tail, and injected intradermally with 150 μl of Freund's Complete Adjuvant (Sigma) containing bovine type II collagen (Elastin Products, Owensville, Mo.) (2 mg/ml) at the base of the tail on day 0 and again on day 21. On study day 18, mice were randomized by body weight into treatment groups. […]

The test system of assay [3] is total splenocytes. Kind of assay: Ex vivo recall responses of splenocytes, HY bone marrow transplantation model. Here is the method:
On week 8 post bone marrow cell transplantion, total splenocytes (5×10^5 cells/well) were cultured in the presence of medium alone (no stimulation), anti-CD3(1 ug/ml), DBY peptide (10 ug/ml), irradiated male splenocytes (5×10^5 cells/well), or irradiated female splenocytes (5×10^5 cells/well). The individual splenocyte samples were cultured separately in triplicate wells. For T cell proliferative response, the cultures were pulsed with 1 uCi of tritiated thymidine at 24 hours and harvested at 72 hours post culture initiation. The statistical analysis carried out on the data is one-way ANOVA followed by Dunnett's post test as compared to the mice receiving male CD45.1+ bone marrow cells plus Control Ig treatment, p-values *<0.05, **<0.01,***<0.001, and #<0.0001.
On week 8 post bone marrow cell transplant, total splenocytes (5×10^5 cells/well) were cultured in the presence of medium alone (no stimulation), anti-CD3 (1 ug/ml), DBY peptide (10 ug/ml), irradiated male splenocytes (5×10^5 cells/well), or irradiated female splenocytes (5×10^5 cells/well). The individual splenocyte samples were cultured separately in triplicate wells. For the cytokine cultures, the supernatants were collected at 72 hours post culture initiation and the level of secreted cytokine was determined via LiquiChip. […]
These same populations of cells were analyzed at week 8 within the spleen. […]

Entries after “also recorded” stand apart in the source; their conditions may differ.

B1: C1ORF32 ECD-Fc (SEQ ID NO:42): human-mouse fusion protein: human C1ORF32 ECD fused to mouse immunoglobulin Fc (SEQ ID NO:42) (protein)
chain: LQVTVPDKKKVAMLFQPTVLRCHFSTSSHQPAVVQWKFKSYCQDRMGESLGMSSTRAQSLSKRNLEWDPYLDCLDSRRTVRVVASKQGSTVTLGDFYRGREITIVHDADLQIGKLMWGDSGLYYCIITTPDDLEGKNEDSVELLVLGRTGLLADLLPSFAVEIMGSENLYFQGSGEPRGPTIKPCPPCKCPAPNLLGGPSVFIFPPKIKDVLMISLSPIVTCVVVDVSEDDPDVQISWFVNNVEVHTAQTQTHREDYNSTLRVVSALPIQHQDWMSGKEFKCKVNNKDLPAPIERTISKPKGSVRAPQVYVLPPPEEEMTKKQVTLTCMVTDFMPEDIYVEWTNNGKTELNYKNTEPVLDSDGSYFMYSKLRVEKKNWVERNSYSCSVVHEGLHNHHTTKSFSRTPGK
modifications: Fusion protein human C1ORF32-ECD fused to mouse IgG2a Fc
Turning to B1, the “disease induction / development” value in assay [1] (100 ug/dose i.p. 3x/wk 2 wks from time of cell transfer) is given as “complete abolishment of disease induction; also recorded: abolished disease development”. The “clinical signs of the disease” value in assay [1] (100 ug/mouse i.p. 3x/wk 2 wks from onset of disease remission) is recorded as “robust inhibition of clinical signs”. Further, the “effect of lower dose” value in assay [2] is recorded as “No effect”. For the same molecule, the “IL-10 and IL-4” value in assay [3] (activation with irradiated male splenocytes) is “increased level”. In addition, in assay [3] (week 8 splenocytes, in response to male or female splenocytes), the “IL-10 and IL-4 secretion” value is recorded as “significantly increased”.
